From article PMC10540051

Biological target: purified extracellular moiety of SorCS1 (UniProt Q8WY21)
Experiment: SPR; BIAcore 3000, CM5 chip; extracellular moiety of SorCS1 immobilised at about 50 fmol/mm^2; mature BDNF (50–200 nM) injected at 5 μl/min in 10 mM Hepes, 150 mM NaCl, 1.5 mM CaCl2, 1 mM EGTA, 0.005% Tween-20, pH 7.4; Langmuir 1:1 model

UniProt Q8WY21, sequence (Q8WY21 34-1099): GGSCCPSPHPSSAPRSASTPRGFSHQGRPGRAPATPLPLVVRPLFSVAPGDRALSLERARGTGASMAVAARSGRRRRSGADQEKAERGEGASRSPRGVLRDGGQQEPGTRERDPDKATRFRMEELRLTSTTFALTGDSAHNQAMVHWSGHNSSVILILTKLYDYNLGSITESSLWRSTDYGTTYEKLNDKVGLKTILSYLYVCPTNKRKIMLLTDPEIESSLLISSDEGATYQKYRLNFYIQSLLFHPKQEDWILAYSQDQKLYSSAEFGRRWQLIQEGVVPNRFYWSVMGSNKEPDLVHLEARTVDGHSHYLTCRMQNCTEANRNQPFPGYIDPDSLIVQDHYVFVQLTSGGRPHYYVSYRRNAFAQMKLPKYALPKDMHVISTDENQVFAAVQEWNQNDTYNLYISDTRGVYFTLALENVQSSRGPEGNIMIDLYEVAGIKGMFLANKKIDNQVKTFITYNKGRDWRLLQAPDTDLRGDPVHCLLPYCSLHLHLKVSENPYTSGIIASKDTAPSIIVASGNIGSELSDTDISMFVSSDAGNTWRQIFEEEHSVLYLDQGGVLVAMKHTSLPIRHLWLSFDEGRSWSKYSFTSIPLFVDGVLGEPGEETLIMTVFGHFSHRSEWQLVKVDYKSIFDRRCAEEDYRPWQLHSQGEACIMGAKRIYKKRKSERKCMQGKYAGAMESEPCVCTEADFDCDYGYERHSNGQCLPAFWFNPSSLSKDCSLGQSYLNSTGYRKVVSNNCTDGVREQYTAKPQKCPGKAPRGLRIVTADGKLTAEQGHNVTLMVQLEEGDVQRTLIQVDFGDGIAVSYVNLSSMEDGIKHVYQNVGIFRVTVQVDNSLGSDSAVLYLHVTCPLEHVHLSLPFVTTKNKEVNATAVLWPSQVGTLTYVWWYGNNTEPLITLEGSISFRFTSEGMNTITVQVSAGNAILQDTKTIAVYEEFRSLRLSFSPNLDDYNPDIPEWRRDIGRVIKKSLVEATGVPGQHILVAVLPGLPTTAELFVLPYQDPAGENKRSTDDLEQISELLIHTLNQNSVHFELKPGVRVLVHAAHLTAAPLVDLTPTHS

Kd: 60 nM
Substance: mature BDNF (ligand)
